From patent publication EP1254174B1
One block for each substance: values may come before it.

What was measured:
[1] = target: Fisp12/mCTGF (mouse) (UniProt P29268); assay: solid-phase binding isotherm: varied RGD-affinity purified αIIbβ3 on immobilized Fisp12/mCTGF, detected with 125I-mAb15; saturable
[2] = target: integrin α3 subunit on 1064SK fibroblasts (human) (UniProt P26006); assay: cell-based or functional assay
[3] = target: integrin β1 subunit (β1 integrins) on 1064SK fibroblasts (human) (UniProt P05556); assay: cell-based or functional assay
integrin β1 subunit (β1 integrins) on 1064SK fibroblasts (human), sequence (P05556 21-798): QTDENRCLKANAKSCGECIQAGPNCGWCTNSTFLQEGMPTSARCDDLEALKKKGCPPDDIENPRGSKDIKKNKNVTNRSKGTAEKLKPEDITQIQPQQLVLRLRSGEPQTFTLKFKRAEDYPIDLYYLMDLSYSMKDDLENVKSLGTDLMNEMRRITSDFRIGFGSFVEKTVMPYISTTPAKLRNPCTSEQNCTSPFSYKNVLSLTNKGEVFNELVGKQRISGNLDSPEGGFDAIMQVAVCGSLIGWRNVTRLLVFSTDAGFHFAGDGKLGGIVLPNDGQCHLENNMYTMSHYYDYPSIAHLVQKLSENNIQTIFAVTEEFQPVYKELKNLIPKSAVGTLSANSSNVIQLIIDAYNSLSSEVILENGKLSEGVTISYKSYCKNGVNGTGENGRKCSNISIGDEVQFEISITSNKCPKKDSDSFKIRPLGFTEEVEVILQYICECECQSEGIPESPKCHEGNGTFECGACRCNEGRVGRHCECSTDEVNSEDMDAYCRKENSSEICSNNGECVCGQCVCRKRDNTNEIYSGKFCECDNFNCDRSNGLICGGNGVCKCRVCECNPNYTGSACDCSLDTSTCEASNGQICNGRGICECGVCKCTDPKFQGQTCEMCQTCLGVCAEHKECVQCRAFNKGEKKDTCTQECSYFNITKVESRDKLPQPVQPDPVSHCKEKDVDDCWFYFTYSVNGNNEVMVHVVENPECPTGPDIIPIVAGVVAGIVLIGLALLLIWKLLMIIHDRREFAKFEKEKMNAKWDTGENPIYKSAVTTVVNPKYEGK

[4] = target: integrin α4 subunit on 1064SK fibroblasts (human) (UniProt P13612); assay: cell-based or functional assay
[5] = target: integrin αv subunit (αv integrins αvβ1, αvβ3, αvβ5) on 1064SK fibroblasts (human) (UniProt P06756); assay: cell-based or functional assay
[6] = target: integrin α6β1 on human cells (1064SK fibroblasts, endothelial cells) (human) (UniProt P23229); assay: cell-based or functional assay
integrin α6β1 on human cells (1064SK fibroblasts, endothelial cells) (human), sequence (P23229 24-1130, chain 1 of 2): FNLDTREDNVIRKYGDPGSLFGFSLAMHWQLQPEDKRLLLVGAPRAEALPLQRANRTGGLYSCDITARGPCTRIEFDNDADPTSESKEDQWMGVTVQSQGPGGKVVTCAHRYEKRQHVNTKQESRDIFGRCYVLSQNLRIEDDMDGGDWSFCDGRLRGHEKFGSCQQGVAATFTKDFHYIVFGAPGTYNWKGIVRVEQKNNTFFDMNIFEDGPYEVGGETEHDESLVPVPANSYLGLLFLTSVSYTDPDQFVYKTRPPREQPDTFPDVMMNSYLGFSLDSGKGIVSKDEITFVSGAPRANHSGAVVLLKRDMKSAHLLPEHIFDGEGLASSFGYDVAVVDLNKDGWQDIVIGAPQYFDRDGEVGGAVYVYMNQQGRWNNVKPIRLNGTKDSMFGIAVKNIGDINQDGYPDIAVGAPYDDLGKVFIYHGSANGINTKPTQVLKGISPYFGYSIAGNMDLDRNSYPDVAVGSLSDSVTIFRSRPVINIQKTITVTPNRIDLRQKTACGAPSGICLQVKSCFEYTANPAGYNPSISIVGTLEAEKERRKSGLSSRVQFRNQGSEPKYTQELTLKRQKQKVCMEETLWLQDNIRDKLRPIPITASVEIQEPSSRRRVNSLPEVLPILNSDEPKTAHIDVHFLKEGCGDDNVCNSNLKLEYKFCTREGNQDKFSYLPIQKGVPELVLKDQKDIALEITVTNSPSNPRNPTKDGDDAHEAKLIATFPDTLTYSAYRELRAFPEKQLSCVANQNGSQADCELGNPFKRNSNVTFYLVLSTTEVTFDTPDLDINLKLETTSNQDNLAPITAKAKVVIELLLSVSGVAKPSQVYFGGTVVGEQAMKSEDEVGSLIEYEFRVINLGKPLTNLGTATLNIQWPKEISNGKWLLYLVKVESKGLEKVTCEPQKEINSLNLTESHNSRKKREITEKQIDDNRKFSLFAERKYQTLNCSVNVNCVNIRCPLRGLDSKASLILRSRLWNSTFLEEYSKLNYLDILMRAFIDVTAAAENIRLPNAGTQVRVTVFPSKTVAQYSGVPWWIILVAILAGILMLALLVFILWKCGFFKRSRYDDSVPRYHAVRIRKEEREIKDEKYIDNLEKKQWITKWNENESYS
integrin α6β1 on human cells (1064SK fibroblasts, endothelial cells) (human), sequence (P05556 21-798, chain 2 of 2, further chain): as the sequence (P05556 21-798) above

[7] = target: αvβ3 integrin on human cells (HUVE cells, fibroblasts, platelets) (human) (UniProt P06756); assay: cell-based or functional assay
[8] = target: integrin α5β1 (fibronectin receptor) on 1064SK fibroblasts (human) (UniProt P08648); assay: cell-based or functional assay
[9] = target: integrin α2 subunit on 1064SK fibroblasts (human) (UniProt P17301); assay: cell-based or functional assay
integrin α2 subunit on 1064SK fibroblasts (human), sequence (P17301 30-1181): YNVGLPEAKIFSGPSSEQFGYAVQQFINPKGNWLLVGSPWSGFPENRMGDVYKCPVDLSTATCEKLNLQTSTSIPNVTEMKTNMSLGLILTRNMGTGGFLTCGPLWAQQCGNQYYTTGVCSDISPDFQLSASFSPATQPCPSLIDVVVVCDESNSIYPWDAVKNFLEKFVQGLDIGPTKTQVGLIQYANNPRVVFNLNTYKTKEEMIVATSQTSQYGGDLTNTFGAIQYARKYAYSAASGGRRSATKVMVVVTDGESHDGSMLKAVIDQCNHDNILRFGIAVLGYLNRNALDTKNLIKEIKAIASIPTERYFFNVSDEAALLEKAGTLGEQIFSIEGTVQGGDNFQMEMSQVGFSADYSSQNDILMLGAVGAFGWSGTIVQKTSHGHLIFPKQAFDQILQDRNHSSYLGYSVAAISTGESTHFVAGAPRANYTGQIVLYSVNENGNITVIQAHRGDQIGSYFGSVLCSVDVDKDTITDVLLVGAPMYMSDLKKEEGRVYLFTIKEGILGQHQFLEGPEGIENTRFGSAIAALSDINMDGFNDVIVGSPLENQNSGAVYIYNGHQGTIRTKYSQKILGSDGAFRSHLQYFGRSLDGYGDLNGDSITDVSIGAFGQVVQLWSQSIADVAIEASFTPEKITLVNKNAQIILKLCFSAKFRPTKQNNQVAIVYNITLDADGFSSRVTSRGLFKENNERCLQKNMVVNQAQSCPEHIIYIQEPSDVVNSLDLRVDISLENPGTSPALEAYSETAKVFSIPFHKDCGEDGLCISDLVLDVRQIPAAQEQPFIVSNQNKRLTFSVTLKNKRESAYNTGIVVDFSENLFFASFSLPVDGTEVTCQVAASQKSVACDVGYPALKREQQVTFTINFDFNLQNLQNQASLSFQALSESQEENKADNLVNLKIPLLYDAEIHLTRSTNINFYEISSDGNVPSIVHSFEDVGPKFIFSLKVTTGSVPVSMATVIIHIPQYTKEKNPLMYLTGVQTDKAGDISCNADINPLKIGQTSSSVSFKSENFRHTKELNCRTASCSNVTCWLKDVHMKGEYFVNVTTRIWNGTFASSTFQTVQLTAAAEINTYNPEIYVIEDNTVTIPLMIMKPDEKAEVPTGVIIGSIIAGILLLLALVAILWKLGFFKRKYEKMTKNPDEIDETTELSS

[10] = target: integrin α1 subunit on 1064SK fibroblasts (human) (UniProt P56199); assay: cell-based or functional assay
integrin α1 subunit on 1064SK fibroblasts (human), sequence (P56199 29-1179): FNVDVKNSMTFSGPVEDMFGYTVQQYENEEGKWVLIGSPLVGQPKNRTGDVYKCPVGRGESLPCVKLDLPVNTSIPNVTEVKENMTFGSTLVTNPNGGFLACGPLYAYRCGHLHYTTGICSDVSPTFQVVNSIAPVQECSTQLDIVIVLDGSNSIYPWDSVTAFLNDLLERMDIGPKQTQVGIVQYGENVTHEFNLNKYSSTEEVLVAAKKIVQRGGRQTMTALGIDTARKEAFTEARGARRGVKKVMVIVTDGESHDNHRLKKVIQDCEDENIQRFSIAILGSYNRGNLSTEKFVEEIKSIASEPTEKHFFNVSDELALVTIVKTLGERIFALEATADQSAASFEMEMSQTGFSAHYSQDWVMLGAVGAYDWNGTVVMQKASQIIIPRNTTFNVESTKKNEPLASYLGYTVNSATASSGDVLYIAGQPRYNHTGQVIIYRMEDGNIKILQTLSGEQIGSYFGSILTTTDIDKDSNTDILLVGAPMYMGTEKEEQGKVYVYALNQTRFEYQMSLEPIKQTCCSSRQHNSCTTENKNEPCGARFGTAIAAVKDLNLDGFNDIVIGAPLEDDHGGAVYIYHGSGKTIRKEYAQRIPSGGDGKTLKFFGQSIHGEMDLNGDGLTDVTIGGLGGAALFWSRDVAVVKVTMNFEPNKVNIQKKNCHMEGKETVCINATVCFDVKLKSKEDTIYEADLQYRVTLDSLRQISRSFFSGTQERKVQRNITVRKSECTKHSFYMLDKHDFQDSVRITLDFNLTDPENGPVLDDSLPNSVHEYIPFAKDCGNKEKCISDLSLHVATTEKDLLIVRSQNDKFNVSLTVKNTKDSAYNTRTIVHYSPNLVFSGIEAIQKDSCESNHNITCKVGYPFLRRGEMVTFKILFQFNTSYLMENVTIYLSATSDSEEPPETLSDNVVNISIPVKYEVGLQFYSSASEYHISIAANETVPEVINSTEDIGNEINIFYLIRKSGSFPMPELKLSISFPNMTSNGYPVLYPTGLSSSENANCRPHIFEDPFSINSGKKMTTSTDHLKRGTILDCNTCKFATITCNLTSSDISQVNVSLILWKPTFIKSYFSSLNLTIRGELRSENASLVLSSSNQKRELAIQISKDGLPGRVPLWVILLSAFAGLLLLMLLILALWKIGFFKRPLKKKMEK

Fisp12/mCTGF (mouse), sequence (P29268 26-348 E161K limits assumed, form in doubt): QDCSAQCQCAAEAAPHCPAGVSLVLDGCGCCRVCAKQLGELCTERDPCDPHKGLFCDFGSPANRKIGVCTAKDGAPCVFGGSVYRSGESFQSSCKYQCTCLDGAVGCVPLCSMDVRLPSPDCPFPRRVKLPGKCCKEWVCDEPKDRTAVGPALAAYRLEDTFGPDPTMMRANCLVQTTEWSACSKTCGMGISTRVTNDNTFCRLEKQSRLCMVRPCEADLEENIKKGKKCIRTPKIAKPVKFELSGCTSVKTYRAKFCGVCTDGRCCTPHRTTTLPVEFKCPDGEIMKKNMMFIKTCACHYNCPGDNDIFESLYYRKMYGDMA

- half-saturation concentration [1]: 15 nM
Substance: activated αIIbβ3 (RGD-affinity purified from human platelet lysates) (from UniProt P08514 32-1039; P05106 27-788) (receptor)

- A620, 1064SK adhesion to Cyr61 (2 µg/ml) after anti-α3 antibody (40 µg/ml); control without antibody 0.58 [2]: 0.55 A620
- A620, 1064SK adhesion to Cyr61 (2 µg/ml) after anti-β1 antibody JB1A (50 µg/ml); 0.53 without antibody [3]: 0.14 A620
- percent inhibition of 1064SK adhesion to Cyr61 by anti-β1 antibody JB1A [3]: 75%
- A620, 1064SK adhesion to Cyr61 (2 µg/ml) after anti-α4 antibody (40 µg/ml); control without antibody 0.58 [4]: 0.56 A620
- A620, 1064SK adhesion to Cyr61 (2 µg/ml) after anti-αv antibody (40 µg/ml); no addition 0.75 [5]: 0.73 A620
- A620, 1064SK adhesion to Cyr61 (2 µg/ml) after anti-α6 antibody (20 µg/ml); 0.53 without antibody [6]: 0.08 A620
- percent inhibition of 1064SK adhesion to Cyr61 by anti-α6 antibody [6]: > 80%
- percent inhibition of 1064SK adhesion to wild-type Cyr61 by anti-α6 antibody (20 µg/ml) [6]: 78%
- relative binding capacity of HUVE cells on wild-type Cyr61 (5 µg/ml) after anti-αvβ3 antibody LM609 (40 µg/ml); no pre-incubation = 100 [7]: 42%
- A620, 1064SK adhesion to Cyr61 (2 µg/ml) after anti-α5 antibody (40 µg/ml); no addition 0.75 [8]: 0.77 A620
- A620, 1064SK adhesion to Cyr61 (2 µg/ml) after anti-α2 antibody (40 µg/ml); control without antibody 0.58 [9]: 0.6 A620
- A620, 1064SK adhesion to Cyr61 (2 µg/ml) after anti-α1 antibody (40 µg/ml); control without antibody 0.58 [10]: 0.54 A620
Substance: human Cyr61 (from UniProt O00622 25-381) (ligand)

- A620, 1064SK adhesion to laminin (5 µg/ml) after anti-α6 antibody; 0.62 without antibody [6]: 0.48 A620
- percent inhibition of 1064SK adhesion to laminin by anti-α6 antibody [6]: 22%
Substance: mouse laminin (ligand)

- A620, 1064SK adhesion to type I collagen (2 µg/ml) after anti-β1 antibody JB1A; 0.56 without antibody [3]: 0.21 A620
- percent inhibition of 1064SK adhesion to type I collagen by anti-β1 antibody JB1A [3]: 62%
Substance: rat tail Type-I collagen (from UniProt P02454 152-1207; P02466 86-1125) (ligand)
